From publication PMC5209880, “Mobilization of hematopoietic stem cells with the novel CXCR4 antagonist POL6326 (balixafortide) in healthy volunteers—results of a dose escalation trial” (Journal of Translational Medicine, 2017)

Tests used:
CD34+ cells (HSPC) = test: Mobilization of CD34+ cells, single platform flow cytometry of blood; assay type: in vivo, human
Experimental: A total of 27 volunteers were treated with balixafortide.
(§1) Blood samples were collected at the indicated times (Figs. 1, 2, 3, 4, 5 and 6) and kept at room temperature (maximum 2–3 h.) until immediately before analysis. Complete blood counts were assessed with the Sysmex XT1800 hematology analyzer (Norderstedt, Germany). CD34+ cells were quantified using the single platform flow cytometry analysis with the SCE Kit [Becton–Dickinson (BD), Heidelberg, Germany] according to the manufacturer’s instructions and ISHAGE guidelines. In addition, multi-parametric flow cytometric analyses were performed to quantify co-mobilized mature cell subsets such as T (CD45+ CD3+), B (CD45+ CD19+) and NK (CD45+ CD56+ 16+) cells (Multitest, T cells, BD), T cell subpopulations (CD45+ CD3+ CD4+/CD8+, Multitest, TBNL cells, BD) and monocytes (CD45+ CD14+, all from BD). In addition, plasmacytoid dendritic cell progenitors (pro-pDCs) were identified as CD45dimCD34dimCD45RA + CD123high (all moABs from BD). Lyse-no-wash protocols were used in conjunction with BD counting beads for direct cell enumeration for CD34+ cells and T cell subsets; all other cell concentrations were calculated using frequencies relative to directly enumerated cell species, such as CD34+, CD45+ or CD3+ cells.

CFU-C (HSPC) = test: Circulating colony-forming units-culture (CFU-C) in methylcellulose media; assay type: in vivo, human; conditions: all doses, mean ± SEM
From the text: Circulating colony-forming units-culture (CFU-C) were quantified by plating aliquots of lysed peripheral blood in commercial cytokine-replete methylcellulose media (StemMACS HSC-CFU lite with Epo, human, Miltenyi Biotec GmbH, Bergisch-Gladbach, Germany).

[1] = system: plasmacytoid dendritic cell progenitors (pro-pDCs); test: Mobilization of plasmacytoid dendritic cell progenitors (pro-pDCs), flow cytometry; assay type: in vivo, human; conditions: balixafortide 1st treatment, constant infusion rate, 2 h; n = 21, mean ± SEM
Experimental: as §1

leukocytes = test: Mobilization of mature hematopoietic cells (blood counts, flow cytometry); assay type: in vivo, human; conditions: mean ± SEM
Experimental: as §1

healthy male volunteers = conditions: in vivo
CD34+ cells = conditions: same daily dose as a single injection; cited from earlier work
From the text: The ability of CXCR4 antagonists to rapidly dislodge stem cells from the marrow has been recognized for many years. Previously studied compounds were neither universally well tolerated nor very potent. The only currently approved CXCR4 antagonist plerixafor mobilized a median of 16 CD34+ cells per µL when administered alone (without G-CSF) in healthy donors, which is barely sufficient to generate a normal-sized graft in two apheresis sessions. || The comparator agent in our study was G-CSF given in split doses as is routine practice in our center; the rationale is twofold: more efficient mobilization and potentially better tolerability. […] Thus the advantage in efficiency of single-dose G-CSF vs. balixafortide at the doses tested here would be les ...

B1: filgrastim (protein, UniProt P09919 31-207, looked up)
Granulocyte …: TPLGPASSLPQSFLLKCLEQVRKIQGDGAALQEKLVSECATYKLCHPEELVLLGHSLGIPWAPLSSCPSQALQLAGCLSQLHSGLFLYQGLLQALEGISPELGPTLDTLQLDVADFATTIWQQMEELGMAPALQPTQGAMPAFASAFQRRAGGVLVASHLQSFLEVSYRVLRHLAQP
modifications: filgrastim, N-terminal Met
notes: cytokine, standard hematopoietic stem and progenitor cell mobilizing agent
Mobilization response of CD34+ cells (CD34+ cells (HSPC); 5-day course of filgrastim 7.5-10 µg/kg per day in 2 divided doses, mean ± SEM): 121.6 ± 8.6 CD34+ cells/μL | Effectiveness of G-CSF regimen relative to balixafortide, CD34+ mobilization (CD34+ cells (HSPC); intra-individual comparison, balixafortide 1500-2500 µg/kg, on average): about three times as effective | Clonogenicity: mobilized CD34+ cells per 1 CFU-C (CFU-C (HSPC)): 3.2 ± 0.2 CD34+ cells | Mobilization of pDC progenitors (% of CD34+CD45dim) [1]: 2.18±0.34% | Ratio between T-lymphocytes and CD34+ cells in mobilized blood (leukocytes): 26.2 ± 1.98 :1 | Side effects in the course of treatment: Abdominal pain (healthy male volunteers): 2 | Side effects in the course of treatment: Bone pain (healthy male volunteers): 24 | Side effects in the course of treatment: Fatigue (healthy male volunteers): 11 | Side effects in the course of treatment: Fever (healthy male volunteers): 2 | Side effects in the course of treatment: Flu-like symptoms (healthy male volunteers): 21 | Side effects in the course of treatment: Headache (healthy male volunteers): 11 | Side effects in the course of treatment: Insomnia (healthy male volunteers): 0 | Side effects in the course of treatment: Palpitation (healthy male volunteers): 1 | Side effects in the course of treatment: Skin reactions (healthy male volunteers): 1 | Side effects in the course of treatment: Sweating (healthy male volunteers): 0 | Side effects in the course of treatment: Vomiting (healthy male volunteers): 0 | Average CD34+ cell counts (CD34+ cells): mid-sixties’ range
